A word on the Ki: it is the equilibrium dissociation constant of an inhibitor or competing ligand from its target.

Side-chain parts run from the residue outwards. [ ]: non-standard residue; d: D form. Phe(4-NH2) = Nc1ccc(C[C@H](N)C(=O)O)cc1; Dap = NC[C@H](N)C(=O)O

This note sets out measurements from US7045617 (MOUNT SINAI SCHOOL OF MEDICINE, dated 2006).

The target of assay [1] is protein tyrosine kinase Csk (UniProt P41240 1-450, limits assumed). In words: Csk kinase inhibition assay.
The target in assay [2] is T1, recombinant mouse protein kinase A (catalytic subunit) (mouse, UniProt P05132 2-351). In words: PKA radiometric kinase assay, Dixon plot, adjusted to zero substrate. As for the experimental part: (§1) Reagents from Calbiochem's Protein Kinase A kit were used to perform the inhibition assays and recombinant mouse PKA (catalytic subunit) was also purchased from Calbiochem (enzyme concentration was established by Bradford analysis). […] These were further diluted into water to produce a range of inhibitor solutions between 51 μM and 507 nM. An 11.25 μL aliquot from each of these solutions was pre-incubated with 7.5 μL of a 1.75 nM PKA enzyme solution (750 ug/uL bovine serum albumin) for 10 minutes at 30° C. after which 12.5 μL of pre-incubation mix was added to 12.5 μL of reaction mix (30 μM cold ATP, 50 μM biotinylated kemptide substrate, 0.04 uCi/μL γP-32 ATP, 80 mM Tris-HCl, 10 mM MgCl_2, pH 7.5) to initiate the enzymatic reaction. […] The columns were placed in scintillation vials and radioactivity was measured using a scintillation counter.

For assay [3], the target named is T1, recombinant mouse protein kinase A …. In words: PKA radiometric kinase assay with biotinylated kemptide, Dixon plot, versus ATP. As for the experimental part:
as §1

Chain of protein tyrosine kinase Csk (P41240 whole entry): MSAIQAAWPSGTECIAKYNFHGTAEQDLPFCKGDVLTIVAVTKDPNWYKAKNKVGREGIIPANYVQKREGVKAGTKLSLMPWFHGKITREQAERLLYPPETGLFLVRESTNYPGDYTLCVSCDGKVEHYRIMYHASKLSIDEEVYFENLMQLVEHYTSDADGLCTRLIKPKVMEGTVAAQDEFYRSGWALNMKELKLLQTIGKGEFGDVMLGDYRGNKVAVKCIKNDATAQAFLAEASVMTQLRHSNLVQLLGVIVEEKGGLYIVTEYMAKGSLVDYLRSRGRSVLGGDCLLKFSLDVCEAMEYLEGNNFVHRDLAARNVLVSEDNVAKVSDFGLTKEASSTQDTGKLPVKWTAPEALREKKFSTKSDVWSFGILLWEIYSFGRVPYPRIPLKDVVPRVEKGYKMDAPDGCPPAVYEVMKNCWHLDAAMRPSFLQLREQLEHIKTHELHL

B1: Compound 2 (peptide-ATP bisubstrate analog; IRS727 peptide linked to ATPγS through an acetyl linker) (peptide)
peptide: Ac-KKKLPATGD[Phe(4-NH2)]([Ac-ATPγS])MNMSPVGD-OH
notes: also called bisubstrate analog 2
In assay [1], B1 displayed an inhibitory constant (Ki) of approximately 40 µM.

B2: kemptide-ATPγS conjugate (peptide)
peptide: Ac-LRRA[Dap]([Ac-ATPγS])LG-OH
Regarding B2, the Ki amounted to 4.6 µM in assay [2] and 9.56 µM in assay [3].
